Results published in patent US20230159612A1 (published 2023).

B1: TCR-1 (TCR, V domains shown)
Valpha: AQKITQTQPGMFVQEKEAVTLDCTYDTSDQSYGLFWYKQPSSGEMIFLIYQGSYDEQNATEGRYSLNFQKARKSANLVISASQLGDSAMYFCAMSGDSAGNMLTFGGGTRLMVKP
Vbeta: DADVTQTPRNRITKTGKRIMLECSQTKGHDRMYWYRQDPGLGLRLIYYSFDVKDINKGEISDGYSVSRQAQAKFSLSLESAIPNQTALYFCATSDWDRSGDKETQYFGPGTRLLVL
B2: TCR-2 (TCR, V domains shown)
Valpha: AQKITQTQPGMFVQEKEAVTLDCTYDTSDPSYGLFWYKQPSSGEMIFLIYQGSYDQQNATEGRYSLNFQKARKSANLVISASQLGDSAMYFCAMSGGYTGGFKTIFGAGTRLFVKA
Vbeta: DSGVTQTPKHLITATGQRVTLRCSPRSGDLSVYWYQQSLDQGLQFLIQYYNGEERAKGNILERFSAQQFPDLHSELNLSSLELGDSALYFCASSGGDGDEQFFGPGTRLTVL
B3: TCR-3 (TCR, V domains shown)
Valpha: GENVEQHPSTLSVQEGDSAVIKCTYSDSASNYFPWYKQELGKRPQLIIDIRSNVGEKKDQRIAVTLNKTAKHFSLHITETQPEDSAVYFCAASRGTGFQKLVFGTGTRLLVSP
Vbeta: DTAVSQTPKYLVTQMGNDKSIKCEQNLGHDTMYWYKQDSKKFLKIMFSYNNKELIINETVPNRFSPKSPDKAHLNLHINSLELGDSAVYFCASSQFWDGAGDEQYFGPGTRLTVT

Assays:
[1] = target: T1, ASTN1 peptide on HLA-A*02:01 (human); test: cytokine release
T1 peptide: KLYGLDWAEL

[2] = target: T2, MAGE-A4 peptide on HLA-A*02:01 (human); test: multimer staining
T2 peptide: GVYDGREHTV

Binder	binding result [1]	binding result [2]
B1	no recognition	recognises
B2	no recognition	–
B3	no recognition	recognises
